Four molecules from publication PMC3075617 (Cell, 2011) can be followed below.

The chains are these.
T1: DegP^S210A/Y444A (Escherichia coli), P0C0V0
T1 chain: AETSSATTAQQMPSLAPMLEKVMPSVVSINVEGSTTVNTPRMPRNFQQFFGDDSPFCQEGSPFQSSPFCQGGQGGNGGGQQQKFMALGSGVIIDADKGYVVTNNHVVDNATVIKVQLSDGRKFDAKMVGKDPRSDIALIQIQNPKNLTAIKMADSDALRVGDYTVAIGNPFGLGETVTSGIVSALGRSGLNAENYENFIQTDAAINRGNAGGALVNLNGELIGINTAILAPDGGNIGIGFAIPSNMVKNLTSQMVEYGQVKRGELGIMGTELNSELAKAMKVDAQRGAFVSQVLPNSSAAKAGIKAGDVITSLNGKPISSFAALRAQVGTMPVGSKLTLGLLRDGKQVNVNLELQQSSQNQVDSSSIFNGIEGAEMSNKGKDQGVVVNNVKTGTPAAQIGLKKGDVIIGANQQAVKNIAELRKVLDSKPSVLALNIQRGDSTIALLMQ

B1: DegP^S210A/Y444A, P0C0V0 27-474 (enzyme)
chain: T1 chain
B2: DegP^S210A active-site mutant (enzyme, Escherichia coli, UniProt P0C0V0 27-474, looked up)
chain: T1 chain with A444Y

For one data set, the target named is DegP (Escherichia coli, UniProt P0C0V0). It is filed as biochemical. To be noted: reporter 100 μM; no activator; 23 °C, 50 mM sodium phosphate pH 8, 100 mM NaCl.
For data set [1], the target named is T1, DegP^S210A/Y444A (Escherichia coli), …. As to the kind of experiment: SEC. As to conditions: remark: other sources report otherwise.
Data set [2] shares this target. Nature of the data set: SEC. To be noted: remark: other sources report otherwise.
The data set “AUC” concerns the molecule itself. As to the kind of experiment: AUC.
The data set “SEC” concerns the molecule itself. As to the kind of experiment: SEC. (SEC sorts molecules by how far they enter the pores of the column.)
The target of data set [3] is B2. Nature of the data set: crystal structure.

Positions count from the first letter of the chain named. In names and notes the source's numbering stands. Several values for one entry are separate records, joined by “and”; a condition that tells them apart may be missing. Equal entries are not always repeated.

Sequence of DegP (P0C0V0 27-474): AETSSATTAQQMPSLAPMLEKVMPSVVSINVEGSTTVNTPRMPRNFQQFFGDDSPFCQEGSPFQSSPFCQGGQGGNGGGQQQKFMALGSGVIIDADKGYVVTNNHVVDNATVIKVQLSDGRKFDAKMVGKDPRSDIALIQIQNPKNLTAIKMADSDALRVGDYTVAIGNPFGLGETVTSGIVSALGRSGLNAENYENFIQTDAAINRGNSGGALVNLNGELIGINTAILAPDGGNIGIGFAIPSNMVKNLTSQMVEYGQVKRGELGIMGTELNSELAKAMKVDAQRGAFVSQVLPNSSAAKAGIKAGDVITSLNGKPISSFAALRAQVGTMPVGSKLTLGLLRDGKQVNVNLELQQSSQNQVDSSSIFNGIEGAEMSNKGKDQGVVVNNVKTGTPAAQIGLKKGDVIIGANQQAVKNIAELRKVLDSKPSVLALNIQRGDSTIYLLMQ

With Abz-KASPVSLGY^NO2D [reporter peptide], at DegP, the “rate of reporter peptide cleavage by DegP alone” value is recorded as 0.027 min^−1 DegP^−1. With B1, the stoichiometry N in data set [1] and in data set [2] was 6 each time. As to B2, the “stoichiometry N” value is 18 and 24 and 30 in “AUC”; 6 in the data set “SEC”. Regarding DNYRGYSLGNWVSAAKFESNFNTQATNRNTDGSTDYGILQI (peptide, UniProt P00698 36-76, looked up) [18-58 polypeptide (lysozyme residues 18-58 with the cysteines mutated to serines)], the binding result in data set [3] is recorded as “binds”.

Broadly, the stoichiometry N is a count of units in the complex or per binding partner.
